According to article PMC2928130:

Target: GST-RPGR^1–15 H98Q (UniProt Q92834)
Test: pull-down

Sequence of UniProt Q92834 (Q92834 whole entry H98Q): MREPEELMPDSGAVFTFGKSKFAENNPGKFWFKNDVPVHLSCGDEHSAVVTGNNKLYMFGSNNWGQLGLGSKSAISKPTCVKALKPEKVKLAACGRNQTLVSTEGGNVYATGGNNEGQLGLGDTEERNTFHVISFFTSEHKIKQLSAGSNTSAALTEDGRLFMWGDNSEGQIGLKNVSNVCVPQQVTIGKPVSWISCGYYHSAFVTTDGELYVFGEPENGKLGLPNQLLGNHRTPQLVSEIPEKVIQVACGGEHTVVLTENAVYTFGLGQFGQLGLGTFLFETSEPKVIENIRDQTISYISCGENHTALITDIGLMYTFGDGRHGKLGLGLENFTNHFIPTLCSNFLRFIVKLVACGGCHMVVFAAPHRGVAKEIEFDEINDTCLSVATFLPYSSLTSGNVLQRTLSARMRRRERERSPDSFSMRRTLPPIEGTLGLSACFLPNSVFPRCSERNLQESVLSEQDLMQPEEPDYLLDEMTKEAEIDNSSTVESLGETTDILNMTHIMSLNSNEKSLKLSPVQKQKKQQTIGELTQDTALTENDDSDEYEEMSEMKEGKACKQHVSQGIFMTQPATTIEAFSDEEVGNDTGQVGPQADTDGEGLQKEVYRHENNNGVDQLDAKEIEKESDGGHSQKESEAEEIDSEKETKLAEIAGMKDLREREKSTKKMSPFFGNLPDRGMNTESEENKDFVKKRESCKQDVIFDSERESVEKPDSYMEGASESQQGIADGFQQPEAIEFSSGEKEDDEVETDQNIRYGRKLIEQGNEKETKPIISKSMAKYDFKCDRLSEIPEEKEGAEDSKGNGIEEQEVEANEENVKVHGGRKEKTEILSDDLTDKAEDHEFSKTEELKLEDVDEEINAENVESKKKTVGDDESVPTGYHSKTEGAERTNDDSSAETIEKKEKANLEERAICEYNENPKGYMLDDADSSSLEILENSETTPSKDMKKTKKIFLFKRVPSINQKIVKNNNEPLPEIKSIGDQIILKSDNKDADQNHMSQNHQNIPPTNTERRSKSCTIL

fold less association than WT-RPGR: 5 fold
Substance: ^35S-labeled RAB8A-T22N (GDP-locked form), in vitro translated (from UniProt P61006 1-207) (natural protein)
